Data taken from patent US20150377889.

Key:
[1] = system: recombinant wild type full-length human galectin-3, His-tagged (unphosphorylated)
[2] = system: recombinant wild type galectin-3 phosphorylated in vitro by c-Abl (galectin-3 Tyr(P)-107), His-tagged
[3] = system: galectin-3 secreted by PC3M cells after EGF (and PDGF) treatment, tyrosine phosphorylated (galectin-3 Tyr(P)-107)
Sequence of galectin-3 secreted by PC3M cells after EGF (and PDGF) treatment, tyrosine phosphorylated (galectin-3 Tyr(P)-107) (chain, as listed by the source): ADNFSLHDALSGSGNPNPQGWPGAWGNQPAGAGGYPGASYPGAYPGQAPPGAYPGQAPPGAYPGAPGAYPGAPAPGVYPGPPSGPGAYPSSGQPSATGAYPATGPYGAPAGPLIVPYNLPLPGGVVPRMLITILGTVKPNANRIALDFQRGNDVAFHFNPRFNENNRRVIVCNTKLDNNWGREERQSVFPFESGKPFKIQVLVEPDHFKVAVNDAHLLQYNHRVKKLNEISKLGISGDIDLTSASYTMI

Sequence of recombinant wild type galectin-3 phosphorylated in vitro by c-Abl (galectin-3 Tyr(P)-107), His-tagged (chain, as listed by the source): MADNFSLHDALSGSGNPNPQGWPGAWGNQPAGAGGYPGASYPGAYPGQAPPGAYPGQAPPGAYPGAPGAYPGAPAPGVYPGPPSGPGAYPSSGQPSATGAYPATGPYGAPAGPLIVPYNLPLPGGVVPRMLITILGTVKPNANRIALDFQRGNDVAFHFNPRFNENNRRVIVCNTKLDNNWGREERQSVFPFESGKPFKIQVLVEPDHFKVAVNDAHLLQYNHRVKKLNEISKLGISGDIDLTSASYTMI

active prostate specific antigen (PSA)
cleavage of galectin-3 by PSA (2 h at room temperature, Western blot with anti-galectin-3 antibody) [1]: FIG. 1A demonstrated that phosphorylation of Tyr-107 blocks the cleavage of galectin-3 by PSA | cleavage of galectin-3 by PSA (2 h at room temperature, Western blot with anti-galectin-3 and anti-Tyr(P) antibodies) [2]: phosphorylation of Tyr-107 blocks the cleavage of galectin-3 by PSA

endogenous PSA secreted by LNCaP cells
cleavage of secreted galectin-3 in conditioned medium of LNCaP/PC3M co-culture with and without EGF (Western blot with HL31) [3]: phosphorylation blocks cleavage of galectin-3 in conditioned medium

phosphatase and tensin homolog (PTEN)
dephosphorylation of galectin-3 Tyr(P)-107 (PTEN for 2 hr at 30 C, pTyr and Gal-3 blots) [2]: This was then proven by phosphorylating galectin-3 in vitro with active c-Abl and then treating it with PTEN
